According to US20230312722A1 (NONA BIOSCIENCES SUZHOU, published 2023):

Legend:
[1] = molecular target: T1, human B7H4 on the cell surface (human, UniProt Q7Z7D3 25-282); test: FACS, SK-BR-3 cells
T1 construct: whole, on cells; also called CHOK1/hu B7H4; B7H4 on SK-BR-3
T1 sequence (looked up): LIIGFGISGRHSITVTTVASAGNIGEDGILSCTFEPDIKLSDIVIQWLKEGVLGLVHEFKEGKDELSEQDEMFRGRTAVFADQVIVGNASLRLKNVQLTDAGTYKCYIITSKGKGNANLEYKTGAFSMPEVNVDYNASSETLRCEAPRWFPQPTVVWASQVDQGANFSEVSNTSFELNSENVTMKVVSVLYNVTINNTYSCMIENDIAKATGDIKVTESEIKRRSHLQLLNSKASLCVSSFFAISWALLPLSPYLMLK
Method: This example is intended to investigate the in vitro binding activity of anti-human B7H4 H2L2 monoclonal antibody to human/cynomolgus monkey/mouse B7H4. Antibody binding experiments at the cellular level were performed using CHOK1 cell line overexpressing human B7H4 (CHOK1/hu B7H4, Harbour BioMed), CHOK1 cell line overexpressing cynomolgus monkey B7H4 (CHOK1/cyno B7H4, Harbour BioMed), CHOK1 cell line overexpressing mouse B7H4 (CHOK1/m B7H4, Harbour BioMed) and SK-BR-3 cell line (ATCC® HTB-30) highly expressing human B7H4. Briefly, CHOK1/hu B7H4 cells, CHOK1/cyno B7H4 cells, CHOK1/m B7H4 cells or SK-BR-3 cells were digested and resuspended with PBS containing 2% BSA. The cell density was adjusted to 1×10⁶ cells/mL. The cells were seeded in a 96-well V-bottom plate (Corning, #3894) at 100 μL/well, followed by the addition of test antibodies diluted in a 3-fold concentration gradient of 2 times the final concentration, each at 100 μL/well. The cells were incubated at 4° C. for 2 h away from light. Thereafter, the cells in each well were rinsed twice with 100 μL of pre-cooled PBS containing 2% BSA, and centrifuged at 500 g at 4° C. for 5 min, and then the supernatant was discarded. […] Finally, the cells in each well were resuspended with 200 μL of pre-cooled PBS containing 2% BSA, and the fluorescence signal values were read using an ACEA Novocyte3000 flow cytometer.

[2] = molecular target: T2, B7-H4 (Acro Biosystems, #B74-H82E2) (UniProt Q7Z7D3 29-258); test: BLI epitope competition; 1st Ab = row; competitor (2nd Ab) PR002418; inhibition of the 2nd Ab signal
T2 construct: Bought protein; also called B7-H4 captured on SA sensor
T2 sequence (looked up): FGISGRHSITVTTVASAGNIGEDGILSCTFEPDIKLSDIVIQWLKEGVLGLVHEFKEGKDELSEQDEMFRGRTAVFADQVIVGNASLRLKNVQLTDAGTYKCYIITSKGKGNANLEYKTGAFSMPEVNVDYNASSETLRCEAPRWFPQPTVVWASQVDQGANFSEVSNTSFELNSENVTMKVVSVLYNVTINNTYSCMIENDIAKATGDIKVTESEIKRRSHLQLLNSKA
Method: (§1) Step one, acquisition of 100% signal of antibodies: B7-H4 (Acro Biosystems, #B74-H82E2-200 μg) was captured at a capture height of 0.25 nm using an SA sensor (Fortebio, #18-5019). The sensor was equilibrated in a buffer for 120 s and then immersed in each antibody diluted to 100 nM for 240 s, and the final signal of the antibody binding to B7-H4 was recorded as the 100% signal of the antibody. Step two, epitope competition experiment: B7-H4 was captured using an SA sensor at a capture height of 0.25 nm. The sensor was immersed in a primary antibody (at a concentration of 100 nM) for 240 s, and then the SA sensor was immersed in a mixture of the primary and secondary antibodies (both at a final concentration of 100 nM) for 240 s, and the difference in signals after immersion of the sensor in the antibody mixture was recorded as the signal of the antibody as the secondary antibody. The inhibition rate was calculated according to the following formula: […]

[3] = molecular target: T2, B7-H4 (Acro Biosystems, #B74-H82E2); test: BLI epitope competition; 1st Ab = row; competitor (2nd Ab) PR002421; inhibition of the 2nd Ab signal
Method: as §1

[4] = molecular target: T3, Human B7H4 (his tag), Sino Biological #10738-H08H (human, UniProt Q7Z7D3 25-259); test: SPR (Biacore T200), antibody captured on Protein A, B7H4-his as analyte, 1:1 fit
T3 construct: extracellular domain; Bought protein; also called hB7H4-ECD-his
T3 sequence (looked up): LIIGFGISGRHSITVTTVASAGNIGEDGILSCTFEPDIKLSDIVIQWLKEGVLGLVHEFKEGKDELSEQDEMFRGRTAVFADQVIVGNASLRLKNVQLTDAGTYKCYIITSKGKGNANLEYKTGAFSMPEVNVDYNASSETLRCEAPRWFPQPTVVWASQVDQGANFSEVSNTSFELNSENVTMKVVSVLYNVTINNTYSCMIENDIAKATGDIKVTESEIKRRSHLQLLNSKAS
Method: 10×HBS-EP+ (GE Healthcare, #BR-1006-69) was diluted 10-fold and then taken as an experimental buffer. The flow rate was set at 10 μL/min, and Protein A was coupled to 4 channels of a chip CM5 (GE Healthcare, #BR-1005-30) through the following procedures: 1) the injection time was set to 800 s, and a fresh mixture of 50 mM NHS and 200 mM EDC was injected into the 4 channels in a volume ratio of 1:1; 2) Protein A was diluted to 20 μg/mL with sodium acetate (GE Healthcare, #BR-1003-50) at pH 4.5 and injected into each channel for 800 s; and 3) 1 M ethanolamine at pH 8.5 was injected for 800 s to block the remaining active carboxyl groups on the chip surface. After blocking, the instrument was equilibrated with 1×HBS-EP+buffer for 2 hours, and the final coupling level of Protein A was about 2000 RU.
A multi-cycle kinetics mode was set at Biacore T200, and each cycle included antibody capture, analyte binding and chip regeneration. […] Finally, 10 mM glycine-hydrochloric acid at pH 1.5 (GE Healthcare, #BR-1003-54) was injected at the same flow rate for 30 s to regenerate the chip.
The experimental results were analyzed using the Biacore T200 analysis software 2.0, with channel 1 subtracted as a reference channel and a 1:1 kinetic fitting model selected as an analysis model.

B1: Control antibody 1 (PR000157) (antibody, V domains shown)
VH: EVQLVQSGAEVKKPGASVKVSCKASGYTFTSYWIGWVRQAPGQGLEWIGDIYPGGGYTNYNEKFKGRVTITRDTSTSTAYLELSSLRSEDTAVYYCARLAGSSYRGAMDSWGQGTLVTVSS
VL: DIQMTQSPSSLSASVGDRVTITCKASQGFNKYVAWYQQKPGKAPKLLIYYTSTLQPGVPSRFSGSGSGRDYTLTISSLQPEDFATYYCLQYGDLLYAFGQGTKVEIKR
notes: Anti-B7H4 IgG1 control antibody from WO2016040724A1; also called 1D11.v1.9varC2
[1]
  EC50: 1.2 nM
  Maximum MFI: 266000 MFI
[2]
  Competitive inhibition rate (%): 4.55%
[3]
  Competitive inhibition rate (%): 1.97%
[4]
  Kd: 4.67 nM
  koff: 0.000189 s⁻¹
  kon: 40400 M⁻¹ s⁻¹
